These results are taken from patent US20170088624A1 (Janssen / Centocor, published 2017).

Experiment [1] concerns the target T1, Full length human CD40 (huCD40) on cells (human, UniProt P25942 21-277). The experiment in a line: cell-based or functional assay.
The next experiment has as its target T2, human CD40 (SPR analyte) (human, UniProt P25942 21-193).
T2 construct: also called huCD40-ECD
The experiment in a line: SPR ProteOn XPR36, mAb captured by anti-human IgG Fc, CD40 as analyte, 25 C. The method, then: (§1) Affinity measurements were performed using Surface Plasmon Resonance (SPR) using a ProteOn XPR36 system (BioRad). […] Approximately 5000 RU (response units) of mAbs were immobilized. The kinetic experiments were performed at 25° C. in running buffer (DPBS+0.01% P20+100 μg/ml BSA). To perform kinetic experiments, 200 RU of mAbs were captured followed by injections of analytes (human or cyno CD40) at 5 concentrations (in a 4-fold serial dilution). The association phase was monitored for 3 minutes at 50 μL/min, then followed by 15 minutes of buffer flow (dissociation phase). The chip surface was regenerated with two 18 second pulses of 100 mM H₃PO₄ (Sigma, Cat#7961) at 100 μL/min.
(§2) The collected data were processed using ProteOn Manager software. First, the data was corrected for background using inter-spots. Then, double reference subtraction of the data was performed by using the buffer injection for analyte injections. The kinetic analysis of the data was performed using a Langmuir 1:1 binding model. The result for each mAb was reported in the format of Ka (On-rate), Kd (Off-rate) and KD (equilibrium dissociation constant).
(§3) The parameters reported in this table were obtained from a 1:1 Langmuir binding model for all samples. Affinity, KD=kd/ka.

The target in experiment [2] is T1, Full length human CD40 (huCD40) on cells. Nature of the experiment: flow cytometry, human mature DCs. As to the method: (§4) Human monocytes were isolated from either frozen/fresh PBMC using CD14 negative isolation kit per manufacturer's protocol (MACS Miltenyi). Cyno monocytes were isolated from fresh PBMC using CD14 positive isolation kit per manufacturer's protocol (MACS Miltenyi). To generate DCs, monocytes were cultured for 5 days in complete media RPMI (Invitrogen) in the presence of 100 ng/ml human GM-CSF and human IL-4 (Peprotech) and media was replenished every 2 days. On day 5, DCs were stimulated with 100 ng/ml LPS (Sigma) for 24 hours. Cells were then stained with each of the tested CD40 antibody at different concentration in flow cytometry buffer (PBS+1% FBS; BD Bioscience) in 100 μl volume for 30 minutes on ice followed with two washes with flow buffer. Cells were then stained for additional 30 minutes on ice with APC-conjugated anti human IgG (Jackson ImmunoResearch) at the recommended dilution 1:100 and washed twice with flow buffer. Cells were analyzed for percent positive and Mean Fluorescence Intensity (MFI) to determine the antibody binding using Fortessa (BD Bioscience).
(§5) The experiments were conducted using assays described above. 20 antibodies were characterized further based on their binding to human DCs, cyno DCs, Raji cells and HEK-Blue™ CD40L cells.
A general note: A flow cytometer gives signals particle by particle.

Experiment [3] shares this target. Nature of the experiment: flow cytometry, Raji cells.
A further experiment deals with T3, cyno CD40 (SPR analyte) (Macaca fascicularis (cynomolgus), UniProt P25942 21-193 (human entry), limits assumed).
T3 construct: also called cCD40-ECD
T3 chain: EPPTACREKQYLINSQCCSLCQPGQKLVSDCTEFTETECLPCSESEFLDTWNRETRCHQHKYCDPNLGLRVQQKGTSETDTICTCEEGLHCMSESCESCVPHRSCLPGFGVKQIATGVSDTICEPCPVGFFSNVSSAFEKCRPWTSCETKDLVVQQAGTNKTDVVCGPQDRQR
Nature of the experiment: SPR ProteOn XPR36, mAb captured, cyno CD40 as analyte, 25 C; did not fit well to 1:1 model. The method, then: as §1, §2, §3

In experiment [4] the target is T1, Full length human CD40 (huCD40) on cells. Nature of the experiment: cell-based or functional assay. This is another data set of the same source.
For experiment [5], the target named is T4, Macaca fascicularis (cyno) CD40 (cCD40) on cells (Macaca fascicularis (cynomolgus), UniProt P25942 21-277 (human entry)).
T4 construct: CD40 on cyno mature DCs
T4 chain: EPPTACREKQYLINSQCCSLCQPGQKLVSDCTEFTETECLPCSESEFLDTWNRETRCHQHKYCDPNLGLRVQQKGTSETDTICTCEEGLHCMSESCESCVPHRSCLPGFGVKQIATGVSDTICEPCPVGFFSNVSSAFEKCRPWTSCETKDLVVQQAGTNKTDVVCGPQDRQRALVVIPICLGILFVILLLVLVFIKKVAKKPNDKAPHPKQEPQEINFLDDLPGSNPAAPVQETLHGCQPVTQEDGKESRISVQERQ
Nature of the experiment: flow cytometry, cyno mature DCs. As to the method: as §4, §5

Experiment [6] deals with T1, Full length human CD40 (huCD40) on cells. Nature of the experiment: flow cytometry, HEK-Blue CD40L cells.
Experiment [7] shares this target. The experiment in a line: flow cytometry, human B cells.
Target sequence in this assay (P25942 21-277): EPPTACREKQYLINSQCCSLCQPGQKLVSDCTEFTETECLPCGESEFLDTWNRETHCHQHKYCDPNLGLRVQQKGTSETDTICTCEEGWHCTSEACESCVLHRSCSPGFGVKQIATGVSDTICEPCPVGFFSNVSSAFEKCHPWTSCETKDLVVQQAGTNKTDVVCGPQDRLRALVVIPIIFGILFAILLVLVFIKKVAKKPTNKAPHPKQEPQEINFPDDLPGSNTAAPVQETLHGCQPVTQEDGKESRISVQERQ
For experiment [8] the target is unchanged. The experiment in a line: cell-based or functional assay. This is another data set of the same source.
Target sequence in this assay (P25942 21-277): as above
The target is the same in experiment [9]. The experiment in a line: flow cytometry, human DCs.
Target sequence in this assay (P25942 21-277): as above
The target is the same in experiment [10]. The experiment in a line: flow cytometry, HEK-Blue CD40L cells. The source holds these as a separate data set.
Target sequence in this assay (P25942 21-277): as above

In general, Kd refers to a measure of binding affinity in units of concentration. Lower therefore signals tighter binding. By koff is commonly meant the rate constant with which the complex falls apart. A low value points to slow dissociation. As usually defined, the kon is the second-order rate constant of association. By EC50 is commonly meant the midpoint of the concentration-response curve.

B1: C40M63 (antibody, human IgG1, kappa, V domains shown)
VH: QVQLVQSGAEVKKPGSSVKVSCKASGGTFSSYAISWVRQAPGQGLEWMGGIIPIFGTANYAQKFQGRVTITADESTSTAYMELSSLRSEDTAVYYCARVGHPAWWRDSLDYWGQGTLVTVSS
VL: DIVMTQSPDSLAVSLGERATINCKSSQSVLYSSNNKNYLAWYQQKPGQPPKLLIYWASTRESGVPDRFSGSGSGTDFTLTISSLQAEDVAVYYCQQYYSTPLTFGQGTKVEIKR
notes: Full-length IgG1/kappa; from phage display
Turning to B1, in [1], the “B cells EC50, CD23 surface expression, with cross-linker” value turned out to be 6.94 ng/mL; the “B cells EC50, CD80 surface expression, with cross-linker” value came out at 0.0167 ng/mL; the “B cells EC50, CD83 surface expression, with cross-linker” value came out at 0.581 ng/mL; the “B cells EC50, CD86 surface expression, with cross-linker” value turned out to be 1.26 ng/mL. The “B cells EC50, HLA-DR surface expression, with cross-linker” value in experiment [1] came out at 0.00966 ng/mL. In the experiment with human CD40 (SPR analyte), this molecule registered an equilibrium dissociation constant (Kd) of 1.21 nM, a koff of 0.000641 s⁻¹ and a kon of 528000 M⁻¹ s⁻¹. In experiment [2], this molecule returned an EC50 of 99.6 ng/mL. This molecule also displayed a 50% effective concentration (EC50) in experiment [3] of 39.6 ng/mL. Moreover, in the experiment with cyno CD40 (SPR analyte), the affinity, expressed as Kd, was 0.412 nM; the off-rate (koff) came to 0.000307 s⁻¹; the kon worked out at 746000 M⁻¹ s⁻¹. Further, in experiment [4], the “DC EC50, CD80 surface expression, with cross-linker” value was found to be 70.5 ng/mL; the “DC EC50, CD83 surface expression, with cross-linker” value was found to be 0.962 ng/mL; the “DC EC50, CD86 surface expression, with cross-linker” value was 258 ng/mL; the “DC EC50, HLA-DR surface expression, with cross-linker” value amounted to 154 ng/mL. In addition, it took 30.9 ng/mL to reach a half-maximal effect in [5] (EC50). In [6], this molecule yielded a concentration giving a half-maximal response (EC50) of 84.9 ng/mL.

B2: C40M62 (antibody, human IgG1, kappa, V domains shown)
VH: QVQLVQSGAEVKKPGSSVKVSCKASGGTFSSYAISWVRQAPGQGLEWMGGIIPIFGTANYAQKFQGRVTITADESTSTAYMELSSLRSEDTAVYYCARVANAAYFRSGLDYWGQGTLVTVSS
VL: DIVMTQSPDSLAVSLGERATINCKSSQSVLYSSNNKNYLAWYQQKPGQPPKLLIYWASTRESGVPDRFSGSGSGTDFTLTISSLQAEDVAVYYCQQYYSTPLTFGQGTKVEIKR
notes: as for B1
Turning to B2, in experiment [1], the “B cells EC50, CD23 surface expression, with cross-linker” value amounted to 12.5 ng/mL; the “B cells EC50, CD80 surface expression, with cross-linker” value was found to be 1.54 ng/mL; the “B cells EC50, CD83 surface expression, with cross-linker” value worked out at 1.26 ng/mL; the “B cells EC50, CD86 surface expression, with cross-linker” value amounted to 1.14 ng/mL. Also, the “B cells EC50, HLA-DR surface expression, with cross-linker” value in experiment [1] is 0.356 ng/mL. In the experiment with human CD40 (SPR analyte), this molecule registered a Kd of 13.1 nM, a dissociation rate constant (koff) of 0.00247 s⁻¹ and an on-rate (kon) of 189000 M⁻¹ s⁻¹. This molecule displayed a 50% effective concentration (EC50) in [2] of 329 ng/mL. This molecule also displayed a half-maximal effective concentration (EC50) in experiment [3] of 99.4 ng/mL. For the same molecule, in the experiment with cyno CD40 (SPR analyte), the dissociation constant Kd worked out at 2.64 nM, the koff came to 0.000908 s⁻¹ and the kon worked out at 343000 M⁻¹ s⁻¹. In experiment [4], the “DC EC50, CD80 surface expression, with cross-linker” value stood at 602 ng/mL; the “DC EC50, CD83 surface expression, with cross-linker” value was determined as 218 ng/mL; the “DC EC50, CD86 surface expression, with cross-linker” value came to 381 ng/mL; the “DC EC50, HLA-DR surface expression, with cross-linker” value was determined as 60.4 ng/mL. In [5], this molecule registered an EC50 of 71.6 ng/mL. Also, in experiment [6], the EC50 came out at 228 ng/mL.

B3: C40M105 (antibody, human IgG1, lambda, V domains shown)
VH: QLQLQESGPGLVKPSETLSLTCTVSGGSISSSSYYWGWIRQPPGKGLEWIGNIYYRGDTYYSPSLKSRVTISVDTSKNQFSLKLSSVTAADTAVYYCARGFRFDYWGQGTLVTVSS
VL: QSALTQPPSASGSPGQSVTISCTGTSSDVGGYNYVSWYQQHPGKAPKLMIYEVSKRPSGVPDRFSGSKSGNTASLTVSGLQAEDEADYYCSSYAGSNNLVFGGGTKLTVLG
Turning to B3, in experiment [7], the EC50 is 6650 ng/mL. In experiment [8], the “EC50, Human B cells (CD83)” value is 2.82 ng/mL; the “EC50, Human DC (HLA-DR)” value worked out at 2970 ng/mL; the “EC50, agonistic activity on HEK-Blue™ CD40L cells (NF-κB/SEAP)” value (“EC50, agonistic activity” for short) worked out at 17.3 ng/mL. In [9], this molecule came in with an EC50 of 5760 ng/mL. In experiment [10], this molecule showed an EC50 of 2160 ng/mL.

B4: C40M102 (antibody, human IgG1, lambda, V domains shown)
VH: EVQLVESGGGLVQPGGSLRLSCAASGFTFSSYAMSWVRQAPGKGLEWVSIINNNVGRTYYADSVKGRFTISRDNSKNTLYLQMNSLRAEDTAVYYCAKEGGDYYYYGMDVWGQGTTVTVSS
VL: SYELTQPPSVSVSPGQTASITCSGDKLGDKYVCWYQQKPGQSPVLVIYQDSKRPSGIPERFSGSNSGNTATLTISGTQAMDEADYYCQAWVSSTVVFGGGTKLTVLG
notes: Variant of C40M18 (VH C40H48, VL C40L70); cloned as IgG1
For the molecule B4, in experiment [7], a half-maximal effect (EC50) was put at 159 ng/mL. In addition, in experiment [8], the “EC50, Human B cells (CD83)” value came to 23.9 ng/mL; the “EC50, Human DC (HLA-DR)” value worked out at 367 ng/mL; the “EC50, agonistic activity” value was found to be 75.1 ng/mL. The EC50 in [9] was found to be 438 ng/mL. The molecule further came in with a 50% effective concentration (EC50) in experiment [10] of 162 ng/mL.

B5: C40M103 (antibody, human IgG1, lambda, V domains shown)
VH: EVQLVESGGGLVQPGGSLRLSCAASGFTFSSYAMSWVRQAPGKGLEWVSIINNNVGRTYYADSVKGRFTISRDNSKNTLYLQMNSLRAEDTAVYYCAKEGGDYYYYGMDVWGQGTTVTVSS
VL: SYELTQPPSVSVSPGQTASITCSGDKLGDKYVSWYQQKPGQSPVLVIYQDSKRPSGIPERFSGSNSGNTATLTISGTQAMDEADYYCQAWVSSTVVFGGGTKLTVLG
notes: Variant of C40M18 (VH C40H48, VL C40L69; LCDR1 cysteine mutated); cloned as IgG1
On to B5, for which the 50% effective concentration (EC50) in [7] came out at 75 ng/mL. Besides, in experiment [8], the “EC50, Human B cells (CD83)” value was found to be 4.79 ng/mL; the “EC50, Human DC (HLA-DR)” value amounted to 388 ng/mL; the “EC50, agonistic activity” value was found to be 2.74 ng/mL. For the same molecule, in [9], the 50% effective concentration (EC50) came to 143 ng/mL. The response in experiment [10] was half-maximal at 112 ng/mL (EC50).

B6: C40M104 (antibody, human IgG1, lambda, V domains shown)
VH: EVQLVESGGGLVQPGGSLRLSCAASGFTFSSYAMSWVRQAPGKGLEWVSIINNNVGRTYYADSVKGRFTISRDNSKNTLYLQMNSLRAEDTAVYYCAKEGGDYYYYGMDVWGQGTTVTVSS
VL: SYELTQPPSVSVSPGQTASITCSGDKLGDKYVSWYQQKPGQSPVVVIYQDSKRPSGIPERFSGSNSGNTATLTISGTQAMDEAYYYCQAWVSSTVVFGGGTKLTVLG
notes: Variant of C40M18 (VH C40H48, VL C40L68; LCDR1 cysteine mutated); cloned as IgG1
For the molecule B6, the figures for the EC50 in experiment [7], in experiment [9] and in experiment [10] were 110 ng/mL, 253 ng/mL and 178 ng/mL, respectively. Moreover, the “EC50, Human B cells (CD83)” value in [8] was 16.7 ng/mL. In addition, the “EC50, Human DC (HLA-DR)” value in experiment [8] is 166 ng/mL. Further, the “EC50, agonistic activity” value in [8] came out at 30.8 ng/mL.
